Results as given in patent US20240287138A1 (Merck Sharp & Dohme, published 2024).
Numbered stars: 1 amine (or outer) side, 2 acyl side, 3 side chain; on linkers, the order of the positions; unused ones are H or OH. Bridge positions count the residues as written; N and C are the ends. Square brackets hold non-standard residues; d marks the D form. Primed or numbered codes have the meaning given here. 4Pal2F = (S)-2-Amino-3-(3-fluoropyridin-4-yl)propanoic acid, O=C([C@H](Cc1ccncc1F)N[*:1])[*:2]; bhcLeu = (1R,3S)-3-aminocyclopentane-1-carboxylic acid, O=C([C@@H]1CC[C@H](N[*:1])C1)[*:2]; AhpF3 = (S)-2-Amino-7,7,7-trifluoroheptanoic acid, O=C([C@H](CCCCC(F)(F)F)N[*:1])[*:2]; Trp(1-CH2CO) = O=C([C@H](Cc1cn(CC(=O)[*:3])c2ccccc12)N[*:1])[*:2]; Ala(2-carboxypyrimidin-5-yl) = N[C@@H](Cc1cnc(C(=O)O)nc1)C(=O)O; Trp(βS-Me,7-OMe) = COc1cccc2c([C@H](C)[C@H](N)C(=O)O)c[nH]c12; Phe(3R-OH) = O=C([C@@H](N[*:1])[C@H](O[*:3])c1ccccc1)[*:2]; Ala(1-bicyclo(1.1.1)pentyl) = N[C@@H](CC12CC(C1)C2)C(=O)O; NEtdA = N-ethyl-D-alanine, CCN([C@H](C)C(=O)[*:2])[*:1]; Phe(4-SO3H) = N[C@@H](Cc1ccc(S(=O)(=O)O)cc1)C(=O)O; Trp(7-Cl) = N[C@@H](Cc1c[nH]c2c(Cl)cccc12)C(=O)O; Phe(4-CONH2) = NC(=O)c1ccc(C[C@H](N)C(=O)O)cc1; Phe(4-COOH) = N[C@@H](Cc1ccc(C(=O)O)cc1)C(=O)O; Trp(7-aza) = N[C@@H](Cc1c[nH]c2ncccc12)C(=O)O; Pip(5R-OH) = O=C(O)[C@@H]1CC[C@@H](O)CN1; Val(3-OH) = CC(C)(O)[C@H](N)C(=O)O; Pip(4-aza) = O=C(O)[C@@H]1CNCCN1; 4Pal = N[C@@H](Cc1ccncc1)C(=O)O; NMeE = CN[C@@H](CCC(=O)O)C(=O)O; dHyp = O=C(O)[C@H]1C[C@H](O)CN1; Morpip6diMe = not defined here; dbhcLeu = not defined here; αMeS = C[C@](N)(CO)C(=O)O; Nle = CCCC[C@H](N)C(=O)O; Pip′ = not defined here; Sar = CNCC(=O)O

T1: TNFR1 on THP-1 Lucia NF-κB cells (UniProt P19438 30-455, limits assumed)
T1 sequence (looked up): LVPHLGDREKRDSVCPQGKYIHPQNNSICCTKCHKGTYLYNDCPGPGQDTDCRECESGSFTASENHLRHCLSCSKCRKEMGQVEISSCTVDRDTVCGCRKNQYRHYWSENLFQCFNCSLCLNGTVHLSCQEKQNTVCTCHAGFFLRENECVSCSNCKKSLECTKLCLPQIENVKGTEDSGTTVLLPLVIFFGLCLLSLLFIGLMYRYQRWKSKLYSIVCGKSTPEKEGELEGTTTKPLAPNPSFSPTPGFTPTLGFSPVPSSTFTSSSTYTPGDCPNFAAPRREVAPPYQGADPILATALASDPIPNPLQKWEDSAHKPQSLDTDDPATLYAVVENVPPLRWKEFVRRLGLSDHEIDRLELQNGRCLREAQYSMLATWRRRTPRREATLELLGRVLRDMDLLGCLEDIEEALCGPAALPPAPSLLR

B1: SEQ ID NO. 201 (peptide)
peptide: cyclo([bhcLeu][Nle][4Pal2F][Pip(4-aza)]W[NMeE]N[4Pal][Trp(7-Cl)][αMeS][Phe(4-COOH)]Y[Sar][Trp(βS-Me,7-OMe)])
SMILES: CCCC[C@@H]1NC(=O)[C@@H]2CC[C@@H](C2)NC(=O)[C@H]([C@@H](C)c2c[nH]c3c(OC)cccc23)NC(=O)CN(C)C(=O)[C@H](Cc2ccc(O)cc2)NC(=O)[C@H](Cc2ccc(C(=O)O)cc2)NC(=O)[C@](C)(CO)NC(=O)[C@H](Cc2c[nH]c3c(Cl)cccc23)NC(=O)[C@H](Cc2ccncc2)NC(=O)[C@H](CC(N)=O)NC(=O)[C@H](CCC(=O)O)N(C)C(=O)[C@H](Cc2c[nH]c3ccccc23)NC(=O)[C@@H]2CNCCN2C(=O)[C@H](Cc2ccncc2F)NC1=O
B2: SEQ ID NO. 217 (peptide)
peptide: {CH2CO}-[Nle]H[Val(3-OH)][Trp(7-aza)][NMeE]N[4Pal][Trp(7-Cl)][αMeS][Phe(4-COOH)]Y[Sar][Trp(βS-Me,7-OMe)]C-NH2
modifications: thioether N-14
SMILES: CCCC[C@@H]1NC(=O)CSC[C@@H](C(N)=O)NC(=O)[C@H]([C@@H](C)c2c[nH]c3c(OC)cccc23)NC(=O)CN(C)C(=O)[C@H](Cc2ccc(O)cc2)NC(=O)[C@H](Cc2ccc(C(=O)O)cc2)NC(=O)[C@](C)(CO)NC(=O)[C@H](Cc2c[nH]c3c(Cl)cccc23)NC(=O)[C@H](Cc2ccncc2)NC(=O)[C@H](CC(N)=O)NC(=O)[C@H](CCC(=O)O)N(C)C(=O)[C@H](Cc2c[nH]c3ncccc23)NC(=O)[C@H](C(C)(C)O)NC(=O)[C@H](Cc2c[nH]cn2)NC1=O
B3: SEQ ID NO. 186 (peptide)
peptide: {CH2CO}-[Nle][4Pal][Pip(5R-OH)]W[NEtdA]N[4Pal][Trp(7-Cl)][αMeS][Phe(4-CONH2)]Y[Sar][Trp(βS-Me,7-OMe)]C-NH2
modifications: thioether N-14
SMILES: CCCC[C@@H]1NC(=O)CSC[C@@H](C(N)=O)NC(=O)[C@H]([C@@H](C)c2c[nH]c3c(OC)cccc23)NC(=O)CN(C)C(=O)[C@H](Cc2ccc(O)cc2)NC(=O)[C@H](Cc2ccc(C(N)=O)cc2)NC(=O)[C@](C)(CO)NC(=O)[C@H](Cc2c[nH]c3c(Cl)cccc23)NC(=O)[C@H](Cc2ccncc2)NC(=O)[C@H](CC(N)=O)NC(=O)[C@@H](C)N(CC)C(=O)[C@H](Cc2c[nH]c3ccccc23)NC(=O)[C@@H]2CC[C@@H](O)CN2C(=O)[C@H](Cc2ccncc2)NC1=O
B4: SEQ ID NO. 214 (peptide)
peptide: cyclo([dbhcLeu][Nle][4Pal][Morpip6diMe]W[NMeE]N[4Pal][Trp(7-Cl)][αMeS][Phe(4-CONH2)]Y[Sar][Trp(βS-Me,7-OMe)])
modifications: reading uncertain; also: printed as cyclo(dbhcLeu-Nle-4Pal-Morpip6diMe-W-NMeE-N-4Pal-Trp7Cl-aMeS-Phe4CONH2-Y-Sar-SbMeW7OMe)
B5: SEQ ID NO. 190 (peptide)
peptide: cyclo([bhcLeu][Ala(1-bicyclo(1.1.1)pentyl)][4Pal][Pip(4-aza)]W[NMeE]N[4Pal][Trp(7-Cl)][αMeS][Phe(4-COOH)]Y[Sar][Trp(βS-Me,7-OMe)])
SMILES: COc1cccc2c([C@H](C)[C@@H]3NC(=O)CN(C)C(=O)[C@H](Cc4ccc(O)cc4)NC(=O)[C@H](Cc4ccc(C(=O)O)cc4)NC(=O)[C@](C)(CO)NC(=O)[C@H](Cc4c[nH]c5c(Cl)cccc45)NC(=O)[C@H](Cc4ccncc4)NC(=O)[C@H](CC(N)=O)NC(=O)[C@H](CCC(=O)O)N(C)C(=O)[C@H](Cc4c[nH]c5ccccc45)NC(=O)[C@@H]4CNCCN4C(=O)[C@H](Cc4ccncc4)NC(=O)[C@H](CC45CC(C4)C5)NC(=O)[C@@H]4CC[C@@H](C4)NC3=O)c[nH]c12
B6: SEQ ID NO. 199 (peptide)
peptide: cyclo([bhcLeu][Nle][4Pal][Pip(4-aza)]W[NMeE]N[4Pal][Trp(7-Cl)][αMeS][Phe(4-SO3H)]Y[Sar][Trp(βS-Me,7-OMe)])
SMILES: CCCC[C@@H]1NC(=O)[C@@H]2CC[C@@H](C2)NC(=O)[C@H]([C@@H](C)c2c[nH]c3c(OC)cccc23)NC(=O)CN(C)C(=O)[C@H](Cc2ccc(O)cc2)NC(=O)[C@H](Cc2ccc(S(=O)(=O)O)cc2)NC(=O)[C@](C)(CO)NC(=O)[C@H](Cc2c[nH]c3c(Cl)cccc23)NC(=O)[C@H](Cc2ccncc2)NC(=O)[C@H](CC(N)=O)NC(=O)[C@H](CCC(=O)O)N(C)C(=O)[C@H](Cc2c[nH]c3ccccc23)NC(=O)[C@@H]2CNCCN2C(=O)[C@H](Cc2ccncc2)NC1=O
B7: SEQ ID NO. 198 (peptide)
peptide: cyclo([bhcLeu][Nle][4Pal][Pip(4-aza)]W[NMeE]N[4Pal2F][Trp(7-Cl)][αMeS][Phe(4-COOH)]Y[Sar][Trp(βS-Me,7-OMe)])
SMILES: CCCC[C@@H]1NC(=O)[C@@H]2CC[C@@H](C2)NC(=O)[C@H]([C@@H](C)c2c[nH]c3c(OC)cccc23)NC(=O)CN(C)C(=O)[C@H](Cc2ccc(O)cc2)NC(=O)[C@H](Cc2ccc(C(=O)O)cc2)NC(=O)[C@](C)(CO)NC(=O)[C@H](Cc2c[nH]c3c(Cl)cccc23)NC(=O)[C@H](Cc2ccncc2F)NC(=O)[C@H](CC(N)=O)NC(=O)[C@H](CCC(=O)O)N(C)C(=O)[C@H](Cc2c[nH]c3ccccc23)NC(=O)[C@@H]2CNCCN2C(=O)[C@H](Cc2ccncc2)NC1=O
B8: SEQ ID NO. 213 (peptide)
peptide: cyclo([bhcLeu][AhpF3][4Pal][Pip(4-aza)]W[NMeE]N[4Pal][Trp(7-Cl)][αMeS][Phe(4-COOH)]Y[Sar][Trp(βS-Me,7-OMe)])
SMILES: COc1cccc2c([C@H](C)[C@@H]3NC(=O)CN(C)C(=O)[C@H](Cc4ccc(O)cc4)NC(=O)[C@H](Cc4ccc(C(=O)O)cc4)NC(=O)[C@](C)(CO)NC(=O)[C@H](Cc4c[nH]c5c(Cl)cccc45)NC(=O)[C@H](Cc4ccncc4)NC(=O)[C@H](CC(N)=O)NC(=O)[C@H](CCC(=O)O)N(C)C(=O)[C@H](Cc4c[nH]c5ccccc45)NC(=O)[C@@H]4CNCCN4C(=O)[C@H](Cc4ccncc4)NC(=O)[C@H](CCCCC(F)(F)F)NC(=O)[C@@H]4CC[C@@H](C4)NC3=O)c[nH]c12
B9: SEQ ID NO. 211 (peptide)
peptide: {CH2CO}-[Nle][4Pal][Phe(3R-OH)][Trp(7-aza)][NMeE]N[4Pal][Trp(7-Cl)][αMeS][Phe(4-COOH)]Y[Sar][Trp(βS-Me,7-OMe)]C-NH2
modifications: thioether N-14
SMILES: CCCC[C@@H]1NC(=O)CSC[C@@H](C(N)=O)NC(=O)[C@H]([C@@H](C)c2c[nH]c3c(OC)cccc23)NC(=O)CN(C)C(=O)[C@H](Cc2ccc(O)cc2)NC(=O)[C@H](Cc2ccc(C(=O)O)cc2)NC(=O)[C@](C)(CO)NC(=O)[C@H](Cc2c[nH]c3c(Cl)cccc23)NC(=O)[C@H](Cc2ccncc2)NC(=O)[C@H](CC(N)=O)NC(=O)[C@H](CCC(=O)O)N(C)C(=O)[C@H](Cc2c[nH]c3ncccc23)NC(=O)[C@H]([C@H](O)c2ccccc2)NC(=O)[C@H](Cc2ccncc2)NC1=O
B10: SEQ ID NO. 197 (peptide)
peptide: cyclo([bhcLeu][Nle][4Pal][Pip(4-aza)][Trp(1-CH2CO)][NMeE]N[4Pal][Trp(7-Cl)][αMeS][Phe(4-COOH)]Y[Sar][Trp(βS-Me,7-OMe)])
SMILES: CCCC[C@@H]1NC(=O)[C@@H]2CC[C@@H](C2)NC(=O)[C@H]([C@@H](C)c2c[nH]c3c(OC)cccc23)NC(=O)CN(C)C(=O)[C@H](Cc2ccc(O)cc2)NC(=O)[C@H](Cc2ccc(C(=O)O)cc2)NC(=O)[C@](C)(CO)NC(=O)[C@H](Cc2c[nH]c3c(Cl)cccc23)NC(=O)[C@H](Cc2ccncc2)NC(=O)[C@H](CC(N)=O)NC(=O)[C@H](CCC(=O)O)N(C)C(=O)[C@H](Cc2cn(CC(=O)O)c3ccccc23)NC(=O)[C@@H]2CNCCN2C(=O)[C@H](Cc2ccncc2)NC1=O
B11: SEQ ID NO. 191 (peptide)
peptide: cyclo([bhcLeu][Nle][4Pal][Pip(5R-OH)]W[dHyp]N[Phe(4-COOH)][Trp(7-Cl)][αMeS][Phe(4-CONH2)][Ala(2-carboxypyrimidin-5-yl)][Sar][Trp(βS-Me,7-OMe)])
SMILES: CCCC[C@@H]1NC(=O)[C@@H]2CC[C@@H](C2)NC(=O)[C@H]([C@@H](C)c2c[nH]c3c(OC)cccc23)NC(=O)CN(C)C(=O)[C@H](Cc2cnc(C(=O)O)nc2)NC(=O)[C@H](Cc2ccc(C(N)=O)cc2)NC(=O)[C@](C)(CO)NC(=O)[C@H](Cc2c[nH]c3c(Cl)cccc23)NC(=O)[C@H](Cc2ccc(C(=O)O)cc2)NC(=O)[C@H](CC(N)=O)NC(=O)[C@H]2C[C@H](O)CN2C(=O)[C@H](Cc2c[nH]c3ccccc23)NC(=O)[C@@H]2CC[C@@H](O)CN2C(=O)[C@H](Cc2ccncc2)NC1=O

These binders were tested against T1, TNFR1 on THP-1 Lucia NF-κB cells (assay: cell-based or functional assay).

First: {CH2CO}-[Nle][4Pal][Pip′]W[NMeE]N[4Pal][Trp(7-Cl)][αMeS][Phe(4-COOH)]Y[Sar][SbMeW7Me]C-NH2 (thioether N-14) [SEQ ID NO. 208]
Second: B1
The “THP-1 IC50” value of the first is 4.4-fold higher: 4 nM for the first, 0.9 nM for the second.

Going from B2 to B3, the “THP-1 IC50” value falls from 4.4 nM to 1.9 nM (2.3-fold).

Compared with B4, B5 is 2.3-fold lower in “THP-1 IC50” value: 3.7 nM for the first, 1.6 nM for the second.

B6 and B7 are within 1.5-fold of each other in “THP-1 IC50” value: 1 nM for the first, 0.8 nM for the second.

Compared with B8, B9 is 3.3-fold higher in “THP-1 IC50” value: 1 nM for the first, 3.3 nM for the second.

Compared with B10, B11 is 2.3-fold higher in “THP-1 IC50” value: 0.7 nM for the first, 1.6 nM for the second.
